The labels stand for the following.
B1: recombinant activin A (ligand)
chain: GLECDGKVNICCKKQFFVSFKDIGWNDWIIAPSGYHANYCEGECPSHIAGTSGSSLSFHSTVINHYRMRGHSPFANLKSCCVPTKLRPMSMLYYDDGQNIIKKDIQNMIVEECGCS
B2: recombinant growth and differentiation factor 11 (GDF11) (ligand)
chain: NLGLDCDEHSSESRCCRYPLTVDFEAFGWDWIIAPKRYKANYCSGQCEYMFMQKYPHTHLVQQANPRGSAGPCCTPTKMSPINMLYFNDKQQIIYGKIPGMVVDRCGCS

For this assay, the target named is activin type II B receptor (ActRIIB) (human (endogenous in HEK293T)) (UniProt Q13705).
Chain of UniProt Q13705 (Q13705 19-512): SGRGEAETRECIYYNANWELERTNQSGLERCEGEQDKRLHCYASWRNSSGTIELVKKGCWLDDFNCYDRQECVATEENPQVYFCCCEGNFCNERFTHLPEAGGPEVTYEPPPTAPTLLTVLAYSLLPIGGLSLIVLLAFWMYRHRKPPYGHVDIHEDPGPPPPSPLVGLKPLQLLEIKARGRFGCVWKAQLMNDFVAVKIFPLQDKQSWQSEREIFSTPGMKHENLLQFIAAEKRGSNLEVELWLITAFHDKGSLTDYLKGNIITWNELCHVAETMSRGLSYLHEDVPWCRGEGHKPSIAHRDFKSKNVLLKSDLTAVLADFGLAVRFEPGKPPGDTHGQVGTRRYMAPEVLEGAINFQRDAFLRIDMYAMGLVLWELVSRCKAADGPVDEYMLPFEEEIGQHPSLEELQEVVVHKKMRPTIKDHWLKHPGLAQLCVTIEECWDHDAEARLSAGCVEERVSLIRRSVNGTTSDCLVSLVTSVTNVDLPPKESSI
“recombinant myostatin (Mstn) (from UniProt O14793 267-375) (ligand)” gave a p-SMAD2/3 AlphaLISA response of HEK293T cells after 1 h of ligand; potency of the ligand with 100 nM anti-ActRIIB (murinized BYM338) applied overnight against 0 nM antibody greater than 100 fold.

Molecule B1 showed a p-SMAD2/3 AlphaLISA response of HEK293T cells after 1 h of ligand; potency of the ligand with 100 nM anti-ActRIIB (murinized BYM338) applied overnight against 0 nM antibody greater than 100 fold.

As for B2, the p-SMAD2/3 AlphaLISA response of HEK293T cells after 1 h of ligand; potency of the ligand with 100 nM anti-ActRIIB (murinized BYM338) applied overnight against 0 nM antibody came out at 100 fold.

The values above are taken from publication PMC5376753.
